Assay [1] addresses biotinylated human FcRn (human) (UniProt P55899). The assay is described as follows: FcRn binding ELISA at pH 6: biotinylated human FcRn on neutravidin, anti-human IgG-Fc-HRP. (In general: In an ELISA, binding on a coated surface is turned into a signal by an enzyme label.)
Assay [2] shares this target. The assay is described as follows: competition ELISA at pH 6: biotinylated human FcRn on neutravidin, competitor recombinant hIgG3 (m8), bound IgG3 detected.
The target is the same in assay [3]. The experiment in a line: FcRn binding ELISA at pH 6: biotinylated human FcRn on neutravidin, anti-human IgG-Fc-HRP. The source holds these as a separate data set.
The target is the same in assay [4]. The experiment in a line: FcRn binding ELISA at pH 7: biotinylated human FcRn on neutravidin, anti-human IgG-Fc-HRP.
The target is the same in assay [5]. The assay is described as above. This is another data set of the same source.
Assay [6] shares this target. The experiment in a line: competition ELISA at pH 6: biotinylated human FcRn on neutravidin, competitor recombinant hIgG3 (m8), bound IgG3 detected. The source holds these as a separate data set.
For assay [7] the target is unchanged. The description is as above. This is another data set of the same source.
For assay [8], the target named is human IgE pre-bound on human basophils (human) (UniProt P01854). The assay is described as follows: cell-based or functional assay.

The results in this text go back to patent US20220177604A1.

Usually EC50 (read off the curve) stands for the concentration at which the effect is half-maximal.

Like-named read-outs stand apart in the source and are kept apart here.

biotinylated human FcRn (human), sequence (P55899 24-297 limits assumed, chain 1 of 2): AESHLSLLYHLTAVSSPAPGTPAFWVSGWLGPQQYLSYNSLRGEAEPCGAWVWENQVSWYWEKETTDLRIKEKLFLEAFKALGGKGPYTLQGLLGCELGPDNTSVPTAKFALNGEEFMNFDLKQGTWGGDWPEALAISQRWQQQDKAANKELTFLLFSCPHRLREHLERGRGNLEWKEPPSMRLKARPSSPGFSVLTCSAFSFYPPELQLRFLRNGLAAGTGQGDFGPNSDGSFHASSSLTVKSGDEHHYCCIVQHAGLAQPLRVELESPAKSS
biotinylated human FcRn (human), sequence (chain, as listed by the source limits assumed, chain 2 of 2): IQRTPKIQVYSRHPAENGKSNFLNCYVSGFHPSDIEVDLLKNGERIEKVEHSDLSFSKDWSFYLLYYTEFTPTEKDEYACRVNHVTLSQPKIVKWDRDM

On to Efgartigimod, for which the EC50 (read off the curve) was found to be 0.06 nM in assay [1], 0.05 nM in assay [3], 0.09 nM in assay [4] and 0.02 nM in assay [5]. Moreover, the IC50 (read off the curve) in assay [2] came to 0.7 nM; in assay [6], 0.6 nM; in assay [7], 0.9 nM.
Regarding Irrelevant antibody, the % of activated basophils (CCR3+CD63+) in assay [8] is 3%.
